One series in a line: CD spectroscopy. The series is classed as physicochemical. The note with it: 20°C, 20 mM potassium phosphate pH 7.5, 0.5 mM DTT, SELCON3, 0.29, 0.14 and 0.086 mg/ml. The method, then: (§1) All CD spectra were recorded on a Chirascan CD spectrometer (Applied Photophysics) in quartz cuvettes with a 0.1 cm path length. Data were recorded at 20°C between 260 - 180 nm in 1 nm increments and a 2 nm bandwidth over an average of two scans. The KLC2^TPR-myc and Trp-JIP3^LZ proteins were dialysed extensively into 20 mM potassium phosphate pH 7.5, 0.5 mM DTT. Spectra were collected from KLC2^TPR-myc samples at concentrations of 0.29, 0.14 and 0.086 mg/ml. Trp-JIP3^LZ spectra were collected at 0.15, 0.074 and 0.044 mg/ml. One spectrum was recorded for each sample at each concentration and background-corrected by subtraction of a buffer-only spectrum. Corrected spectra were converted to units of mean residue ellipticity and deconvolved using the Dichroweb server ([Whitmore and Wallace, 2008]). KLC2^TPR-myc and Trp-JIP3^LZ spectra were analysed using the SELCON3 and CONTIN algorithms, respectively, using reference dataset set 4 ([Sreerama et al., 1999], [van Stokkum et al., 1990]). For each protein, the mean percentage of each secondary structure type, and the corresponding standard deviation, was calculated from the values obtained from the three concentrations. The secondary structure content for KLC2^TPR-myc and Trp-JIP3^LZ were calculated using the KLC2^TPR:JIP3^LZ crystal structure using the STRIDE server (http://webclu.bio.wzw.tum.de/cgi-bin/stride/stridecgi.py) ([Frishman and Argos, 1995]).

The nature of another series: SEC-MALLS. The series is classed as physicochemical. Conditions: 25 mM HEPES pH 7.5, 0.1 M NaCl, 1 mM TCEP. The method, then: Fifty microliters of JIP3^LZ was injected onto a WTC-030S5 column, pre-equilibrated with buffer containing 25 mM HEPES pH 7.5, 0.1 M NaCl and 1 mM TCEP at a flow rate of 1 ml/min. Data were recorded using a DAWN 8+ multi-angle light scattering (LS) detector, an Optilab T-rEX differential refractive index (dRI) detector and UV absorbance (UV) detector (Wyatt Technology) and analyzed with the Astra 6.2 software package provided by the manufacturer (Wyatt Technology).

Series [1] is described as follows: Secondary structure content calculated from the KLC2^TPR:JIP3^LZ crystal structure (STRIDE). The method, then: as §1, with “Corrected spectra were converted to units of mean residue ellipticity and deconvolved using the Dichroweb server ([Whitmore and Wallace, 2008]).” left out
The next series deals with KLC2^TPR. In words: ITC of KLC2^TPR binding to GST3C-JIP3^LZ, two-stage sequential model. Conditions: for K, macroscopic association constant / ΔH / –TΔS: ITC, 25°C, 0.5 M NaCl, pH 7.5, globally fitted over four experiments; for K, macroscopic association constant: 25 mM HEPES, 5 mM MgCl2, 1 mM TCEP. The arrangement: species or system murine. The method, then: For ITC studies with the KLC2^TPR and GST-JIP3^LZ, the high KLC2^TPR concentrations required to use this protein as titrant necessitated a higher salt concentration than that used for crystallographic studies. The KLC2^TPR was prepared as above for crystallographic studies but the final size exclusion chromatography step was performed in 500 mM NaCl, 25 mM HEPES, 5mM MgCl2, 1 mM TCEP (final pH 7.5). The GST-JIP3^LZ protein was bound to glutathione sepharose resin in batch as described above for the JIP3^LZ. The GST-JIP3^LZ protein was eluted in 0.25 M NaCl, 50 mM TRIS.HCl, 1 mM TCEP, 25 mM glutathione; final pH 7.5, and purified by size exclusion chromatography on a Superdex 200 16/600 column (GE Healthcare) equilibrated in 500 mM NaCl, 25 mM HEPES, 5mM MgCl2 and 1 mM TCEP (final pH 7.5).
To study the binding of the KLC2^TPR to GST3C-JIP3^LZ, the proteins were prepared by size exclusion chromatography in 0.5 M NaCl, 25 mM HEPES, 5 mM MgCl2, 1 mM TCEP, final pH 7.5. ITC measurements were performed on a MicroCal iTC200 calorimeter (Malvern) at 25°C, with a differential power of 5.0 μcal/s and stirring at 750 rpm. Experiments consisted of an initial sacrificial 0.5 μl injection, followed 120 s later by 19 injections of 2 μl spread over 4 s, spaced 120 s apart. Thermograms were integrated and corrected for heats of dilution using NITPIC (http://biophysics.swmed.edu/MBR/software.html). The resulting isotherms were analysed in SEDPHAT (http://www.analyticalultracentrifugation.com/sedphat/) ([Keller et al., 2012], [Zhao et al., 2015]). The isotherms from these experiments were globally fitted with the A + B + B → AB + B → ABB model. […] Figures were prepared using GUSSI (http://biophysics.swmed.edu/MBR/software.html).

The mark [2] stands for this setting: stage A + B + B → BA + B (first KLC2^TPR).
Setting [3] is: stage BA + B → BAB (second KLC2^TPR).

B1: KLC2^TPR-myc: murine KLC2 residues 191-480 with … fused to the C-terminus (protein)
chain: GYEIPARLRTLHNLVIQYASQGRYEVAVPLCKQALEDLEKTSGHDHPDVATMLNILALVYRDQNKYKDAAHLLNDALAIREKTLGKDHPAVAATLNNLAVLYGKRGKYKEAEPLCKRALEIREKVLGKFHPDVAKQLSNLALLCQNQGKAEEVEYYYRRALEIYATRLGPDDPNVAKTKNNLASCYLKQGKYQDAETLYKEILTRAHEKEFGSVNGENKPIWMHAEEREESKDKRRDRRPMEYGSWYKACKVDSPTVNTTLRTLGALYRPEGKLEAAHTLEDCASRSRKQ
modifications: left off: His6-SUMO, N-terminal, cleaved | myc (…), C-terminal, kept
In the case of B1, in “CD spectroscopy”, the “secondary structure content by CD versus crystal structure” value was “very similar to that calculated from the KLC2^TPR:JIP3^LZ crystal structure”.

B2: JIP3^LZ: JIP3 leucine zipper domain, residues 417-487 of murine JIP3 isoform A (protein)
chain: WMGKEVGNLLLENSQLLETKNALNVVKNDLIAKVDQLSGEQEVLKGELEAAKQAKVKLENRIKELEEELKRV
modifications: left off: GST, N-terminal, cleaved
notes: JIP3 leucine zipper domain, residues 417-487 of murine JIP3 isoform A
On to B2, for which the “oligomeric state in solution” value in the series “SEC-MALLS” was “stable dimer”. Besides, the “α-helical content calculated from crystal structure” value in series [1] is on record as 77%.

B3: GST-JIP3^LZ: GST and 3C site fused to murine JIP3 isoform A leucine zipper, residues 417-487 (protein, UniProt Q9ESN9 417-487, looked up, fragment)
chain: MGKEVGNLLLENSQLLETKNALNVVKNDLIAKVDQLSGEQEVLKGELEAAKQAKVKLENRIKELEEELKRV
modifications: isoform A N-terminal GST tag, 3C site
On to B3, for which the thermodynamic driving force entry in the series on KLC2^TPR (binding of the first KLC2^TPR) was “enthalpically driven”. Also, in the series on KLC2^TPR (binding of the second KLC2^TPR), the thermodynamic driving force entry is “entropically driven”. In the series on KLC2^TPR (setting [2]), the “K, macroscopic association constant” value is 0.1317 µM⁻¹; the ΔH was -18.756 kcal/mol; the “–TΔS” value was 11.772 kcal/mol. Also, in the series with KLC2^TPR (setting [3]), the “K, macroscopic association constant” value came to 0.1315 µM⁻¹; the ΔH was determined as 0.952 kcal/mol; the “–TΔS” value was -7.935 kcal/mol. Moreover, in the series on KLC2^TPR (suggested by very similar macroscopic association constants), the “cooperativity of binding of two KLC2^TPR subunits” value is “positive cooperativity”.

These data come from publication PMC6224480, “Insights into Kinesin-1 Activation from the Crystal Structure of KLC2 Bound to JIP3” (Structure(London, England:1993), 2018).
